Test results: PMC11561172 (Nature Communications, 2024)

Target: the molecule itself
Experiment: cryo-EM structure

B1: RNA polymerase α subunit (natural protein, Spinacia oleracea (spinach), UniProt P06505 1-335, looked up)
chain: MVREKIRVSTQTLQWKCVESRTDSKCLHYGRFILSPLMKGQADTIGIAMRRALLGEIEGTCITRAKSEKIPHEYSTILGIQESVHEILMNLKEIVLRSNLYGTCEASICVRGPRGVTAQDIILPPYVEIVDNTQHIASLTEPIDLCIGLQLERNRGYHIKAPNNFQDGSFPIDALFMPVRNVNHSIHSYGNGNEKQEILFLEIWTNGSLTPKEALYEASRNLIDLLIPFLHAEENVNLEDNQHKVSLPLFTFHNRLAEIRKNKKKIALKFIFIDQLELPPRIYNCLKKSNIHTLLDLLNNSQEDLIKMKHFRIEDVKQIFGTLEKHFVIDLKNKR
  binding result: binds
